Laboratory results published in patent US20170051068A1 (Janssen / Centocor, published 2017).

Tests used:
[1] = molecular target: T1, Fc-fusion cyno BCMA (in-house; Cat# BCMW6.001) (cyno, UniProt Q02223 1-54 (human entry)); test: SPR, cyno Fc-BCMA
T1 construct: also called Fc-BCMA Cy; cyno Fc-BCMA; not shown: Fc part

[2] = molecular target: T1, Fc-fusion cyno BCMA (in-house; Cat# …); test: SPR, Fc-BCMA, two-state model, step 1 (kon1); first step (kon1)
[3] = molecular target: T1, Fc-fusion cyno BCMA (in-house; Cat# …); test: SPR, Fc-BCMA, two-state model, Final KD; Final complex KD, two-state model
[4] = molecular target: T1, Fc-fusion cyno BCMA (in-house; Cat# …); test: SPR, Fc-BCMA, two-state model, first complex
[5] = molecular target: T1, Fc-fusion cyno BCMA (in-house; Cat# …); test: SPR, Fc-BCMA, two-state model, step 2
[6] = molecular target: T1, Fc-fusion cyno BCMA (in-house; Cat# …); test: SPR, Fc-BCMA, two-state model, step 1 (koff1); first step (koff1)
[7] = molecular target: T2, Recombinant human BCMA-Fc fusion protein (R&D Systems catalog #193-BC-050) (human, UniProt Q02223 1-54); test: SPR, Fc-BCMA, two-state model, step 1 (kon1); first step (kon1)
T2 construct: also called hBCMA-Fc; Fc-BCMA Hu; not shown: Fc part of the bought fusion protein
T2 sequence: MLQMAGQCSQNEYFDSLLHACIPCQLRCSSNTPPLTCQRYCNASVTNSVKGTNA

[8] = molecular target: T2, Recombinant human BCMA-Fc fusion …; test: SPR, Fc-BCMA, two-state model, Final KD; Final complex KD, two-state model
[9] = molecular target: T2, Recombinant human BCMA-Fc fusion …; test: SPR, Fc-BCMA, two-state model, first complex
[10] = molecular target: T2, Recombinant human BCMA-Fc fusion …; test: SPR, Fc-BCMA, two-state model, step 2
[11] = molecular target: T2, Recombinant human BCMA-Fc fusion …; test: SPR, Fc-BCMA, two-state model, step 1 (koff1); first step (koff1)
[12] = molecular target: T2, Recombinant human BCMA-Fc fusion …; test: SPR, human Fc-BCMA

B1: BC3B7 (BCMA×CD3 bispecific antibody, BCMB117 × CD3B219) (bispecific antibody, human IgG4 S228P, lambda, F234A L235A)
heavy 1: EVQLVESGGGLVQPGGSLRLSCAASGFTFNTYAMNWVRQAPGKGLEWVARIRSKYNNYATYYAASVKGRFTISRDDSKNSLYLQMNSLKTEDTAVYYCARHGNFGNSYVSWFAYWGQGTLVTVSSASTKGPSVFPLAPCSRSTSESTAALGCLVKDYFPEPVTVSWNSGALTSGVHTFPAVLQSSGLYSLSSVVTVPSSSLGTKTYTCNVDHKPSNTKVDKRVESKYGPPCPPCPAPEAAGGPSVFLFPPKPKDTLMISRTPEVTCVVVDVSQEDPEVQFNWYVDGVEVHNAKTKPREEQFNSTYRVVSVLTVLHQDWLNGKEYKCKVSNKGLPSSIEKTISKAKGQPREPQVYTLPPSQEEMTKNQVSLTCLVKGFYPSDIAVEWESNGQPENNYKTTPPVLDSDGSFLLYSKLTVDKSRWQEGNVFSCSVMHEALHNHYTQKSLSLSLGK
light 1: QTVVTQEPSLTVSPGGTVTLTCRSSTGAVTTSNYANWVQQKPGQAPRGLIGGTNKRAPGTPARFSGSLLGGKAALTLSGVQPEDEAEYYCALWYSNLWVFGGGTKLTVLGQPKAAPSVTLFPPSSEELQANKATLVCLISDFYPGAVTVAWKADSSPVKAGVETTTPSKQSNNKYAASSYLSLTPEQWKSHRSYSCQVTHEGSTVEKTVAPTECS
heavy 2: not shown
light 2: SYVLTQPPSVSVAPGQTARITCGGNNIGSKSVHWYQQPPGQAPVVVVYDDSDRPSGIPERFSGSNSGNTATLTISRVEAGDEAVYYCQVWDSSSDHVVFGGGTKLTVLGQPKAAPSVTLFPPSSEELQANKATLVCLISDFYPGAVTVAWKADSSPVKAGVETTTPSKQSNNKYAASSYLSLTPEQWKSHRSYSCQVTHEGSTVEKTVAPTECS
notes: also called BC3BY; B117 × B219
B1 was tested, and the “fold tighter affinity than BCMB72” value [1] was 2 fold, the kon [2] was 1.38e+06 M⁻¹ s⁻¹ and the Kd [3] was 0.65 nM. For the same binder, the KD1 [4] was 3.04 nM, the koff2 [5] was 0.000415 s⁻¹ and the kon2 [5] was 0.0015 s⁻¹. It also gave a koff [6] of 0.00417 s⁻¹.

B2: BC3B9 (BCMA×CD3 bispecific antibody, BCMB128 × CD3B219) (bispecific antibody, human IgG4 S228P, lambda, F234A L235A)
heavy 1: EVQLVESGGGLVQPGGSLRLSCAASGFTFNTYAMNWVRQAPGKGLEWVARIRSKYNNYATYYAASVKGRFTISRDDSKNSLYLQMNSLKTEDTAVYYCARHGNFGNSYVSWFAYWGQGTLVTVSSASTKGPSVFPLAPCSRSTSESTAALGCLVKDYFPEPVTVSWNSGALTSGVHTFPAVLQSSGLYSLSSVVTVPSSSLGTKTYTCNVDHKPSNTKVDKRVESKYGPPCPPCPAPEAAGGPSVFLFPPKPKDTLMISRTPEVTCVVVDVSQEDPEVQFNWYVDGVEVHNAKTKPREEQFNSTYRVVSVLTVLHQDWLNGKEYKCKVSNKGLPSSIEKTISKAKGQPREPQVYTLPPSQEEMTKNQVSLTCLVKGFYPSDIAVEWESNGQPENNYKTTPPVLDSDGSFLLYSKLTVDKSRWQEGNVFSCSVMHEALHNHYTQKSLSLSLGK
light 1: QTVVTQEPSLTVSPGGTVTLTCRSSTGAVTTSNYANWVQQKPGQAPRGLIGGTNKRAPGTPARFSGSLLGGKAALTLSGVQPEDEAEYYCALWYSNLWVFGGGTKLTVLGQPKAAPSVTLFPPSSEELQANKATLVCLISDFYPGAVTVAWKADSSPVKAGVETTTPSKQSNNKYAASSYLSLTPEQWKSHRSYSCQVTHEGSTVEKTVAPTECS
heavy 2: not shown
light 2: SYVLTQPPSVSVAPGQTARITCGGNNIGSKSVHWYQQPPGQAPVVVVYDDSDRPSGIPERFSGSNSGNTATLTISRVEAGDEAVYYCQVWDSSSDHVVFGGGTKLTVLGQPKAAPSVTLFPPSSEELQANKATLVCLISDFYPGAVTVAWKADSSPVKAGVETTTPSKQSNNKYAASSYLSLTPEQWKSHRSYSCQVTHEGSTVEKTVAPTECS
notes: IgG4 made by Fab arm exchange; also called B128 × B219
B2 was tested, and the “fold tighter affinity than BCMB72” value [1] was 3 fold, the kon [7] was 2.58e+06 M⁻¹ s⁻¹ and the kon [2] was 2.18e+06 M⁻¹ s⁻¹. It also gave a Kd [8] of 0.05 nM, a Kd [3] of 0.37 nM and a KD1 [9] of 0.79 nM. It also gave a KD1 [4] of 1.94 nM, a koff2 [10] of 0.000364 s⁻¹ and a kon2 [10] of 0.00506 s⁻¹. It also gave a koff2 [5] of 0.000376 s⁻¹, a kon2 [5] of 0.0016 s⁻¹ and a koff [11] of 0.00205 s⁻¹. The koff [6] was 0.00423 s⁻¹.

B3: BC3B11 (BCMA×CD3 bispecific antibody, BCMB176 × CD3B219) (bispecific antibody, human IgG4 S228P, lambda, F234A L235A)
heavy 1: EVQLVESGGGLVQPGGSLRLSCAASGFTFNTYAMNWVRQAPGKGLEWVARIRSKYNNYATYYAASVKGRFTISRDDSKNSLYLQMNSLKTEDTAVYYCARHGNFGNSYVSWFAYWGQGTLVTVSSASTKGPSVFPLAPCSRSTSESTAALGCLVKDYFPEPVTVSWNSGALTSGVHTFPAVLQSSGLYSLSSVVTVPSSSLGTKTYTCNVDHKPSNTKVDKRVESKYGPPCPPCPAPEAAGGPSVFLFPPKPKDTLMISRTPEVTCVVVDVSQEDPEVQFNWYVDGVEVHNAKTKPREEQFNSTYRVVSVLTVLHQDWLNGKEYKCKVSNKGLPSSIEKTISKAKGQPREPQVYTLPPSQEEMTKNQVSLTCLVKGFYPSDIAVEWESNGQPENNYKTTPPVLDSDGSFLLYSKLTVDKSRWQEGNVFSCSVMHEALHNHYTQKSLSLSLGK
light 1: QTVVTQEPSLTVSPGGTVTLTCRSSTGAVTTSNYANWVQQKPGQAPRGLIGGTNKRAPGTPARFSGSLLGGKAALTLSGVQPEDEAEYYCALWYSNLWVFGGGTKLTVLGQPKAAPSVTLFPPSSEELQANKATLVCLISDFYPGAVTVAWKADSSPVKAGVETTTPSKQSNNKYAASSYLSLTPEQWKSHRSYSCQVTHEGSTVEKTVAPTECS
heavy 2: not shown
light 2: SYVLTQPPSVSVAPGQTARITCGGNNIGSKSVHWYQQPPGQAPVVVVYDDSDRPSGIPERFSGSNSGNTATLTISRVEAGDEAVYYCQVWDSSSDHVVFGGGTKLTVLGQPKAAPSVTLFPPSSEELQANKATLVCLISDFYPGAVTVAWKADSSPVKAGVETTTPSKQSNNKYAASSYLSLTPEQWKSHRSYSCQVTHEGSTVEKTVAPTECS
notes: IgG4 made by Fab arm exchange; also called B176 × B219
In the case of B3, the kon [7] is reported as 2.26e+06 M⁻¹ s⁻¹, the kon [2] is reported as 1.93e+06 M⁻¹ s⁻¹ and the “fold weaker affinity than BCMB72” value [12] is reported as 2 to 3 fold. For the same binder, the Kd [8] was 0.12 nM, the Kd [3] was 0.75 nM and the KD1 [9] was 0.58 nM. It also gave a KD1 [4] of 3.56 nM, a koff2 [10] of 0.000689 s⁻¹ and a kon2 [10] of 0.00252 s⁻¹. It also gave a koff2 [5] of 0.000395 s⁻¹, a kon2 [5] of 0.00147 s⁻¹ and a koff [11] of 0.00132 s⁻¹. The koff [6] was 0.00683 s⁻¹.

B4: BC3B12 (BCMA×CD3 bispecific antibody, BCMB177 × CD3B219) (bispecific antibody, human IgG4 S228P, lambda, F234A L235A)
heavy 1: EVQLVESGGGLVQPGGSLRLSCAASGFTFNTYAMNWVRQAPGKGLEWVARIRSKYNNYATYYAASVKGRFTISRDDSKNSLYLQMNSLKTEDTAVYYCARHGNFGNSYVSWFAYWGQGTLVTVSSASTKGPSVFPLAPCSRSTSESTAALGCLVKDYFPEPVTVSWNSGALTSGVHTFPAVLQSSGLYSLSSVVTVPSSSLGTKTYTCNVDHKPSNTKVDKRVESKYGPPCPPCPAPEAAGGPSVFLFPPKPKDTLMISRTPEVTCVVVDVSQEDPEVQFNWYVDGVEVHNAKTKPREEQFNSTYRVVSVLTVLHQDWLNGKEYKCKVSNKGLPSSIEKTISKAKGQPREPQVYTLPPSQEEMTKNQVSLTCLVKGFYPSDIAVEWESNGQPENNYKTTPPVLDSDGSFLLYSKLTVDKSRWQEGNVFSCSVMHEALHNHYTQKSLSLSLGK
light 1: QTVVTQEPSLTVSPGGTVTLTCRSSTGAVTTSNYANWVQQKPGQAPRGLIGGTNKRAPGTPARFSGSLLGGKAALTLSGVQPEDEAEYYCALWYSNLWVFGGGTKLTVLGQPKAAPSVTLFPPSSEELQANKATLVCLISDFYPGAVTVAWKADSSPVKAGVETTTPSKQSNNKYAASSYLSLTPEQWKSHRSYSCQVTHEGSTVEKTVAPTECS
heavy 2: not shown
light 2: SYVLTQPPSVSVAPGQTARITCGGNNIGSKSVHWYQQPPGQAPVVVVYDDSDRPSGIPERFSGSNSGNTATLTISRVEAGDEAVYYCQVWDSSSDHVVFGGGTKLTVLGQPKAAPSVTLFPPSSEELQANKATLVCLISDFYPGAVTVAWKADSSPVKAGVETTTPSKQSNNKYAASSYLSLTPEQWKSHRSYSCQVTHEGSTVEKTVAPTECS
notes: IgG4 made by Fab arm exchange; also called B177 × B219
B4 was tested, and the kon [7] was 1.78e+06 M⁻¹ s⁻¹, the kon [2] was 1.48e+06 M⁻¹ s⁻¹ and the “fold weaker affinity than BCMB72” value [12] was 2 to 3 fold. The Kd [8] was 0.22 nM, the Kd [3] was 1.06 nM and the KD1 [9] was 0.72 nM. The KD1 [4] was 5.65 nM, the koff2 [10] was 0.000557 s⁻¹ and the kon2 [10] was 0.00129 s⁻¹. The koff2 [5] was 0.000337 s⁻¹, the kon2 [5] was 0.00146 s⁻¹ and the koff [11] was 0.00129 s⁻¹. The koff [6] was 0.00831 s⁻¹.
